Assay [1] deals with 16055 NFL TD CC GL2 trimer with N332 restored. The assay is described as follows: ELISA, His-captured trimer, OD 450 nm. (In an ELISA, binding on a coated surface is turned into a signal by an enzyme label.)
Assay [2] concerns the target Δ276 Δ301 Δ360 Δ463. The assay is described as follows: ELISA, His-captured trimer, OD 450 nm.
The target in assay [3] is Δ276 Δ360 Δ463. The assay is described as follows: ELISA, His-captured trimer, OD 450 nm.
For assay [4], the target named is 16055 NFL TD CC GL2 trimer with N332 restored. The assay is described as follows: ELISA, trimer on the plate without His-capture (panel 'plate 2G12'), OD 450 nm.
Assay [5] deals with Δ276 Δ301 Δ360 Δ463. The assay is described as above.
Assay [6] addresses Δ276 Δ360 Δ463. Described as above.
Assay [7] has as its target 16055 NFL TD CC GL2 trimer with N332 restored. In words: ELISA, OD 450 nm.
Assay [8] concerns the target Δ276 Δ301 Δ360 Δ463. In words: ELISA, OD 450 nm.
Assay [9] has as its target Δ276 Δ360 Δ463. In words: ELISA, OD 450 nm.
Another assay has as its target 16055 NFL TD GL L568G. In words: ELISA, OD 450nm, mAb 5 to 0.00032 ug/mL on the trimer.
Assay [10] concerns the target 16055 NFL TD8 CC trimer (HIV-1 strain 16055 (subtype C)). The assay is described as follows: BLI; IgG immobilized on a bio-sensor, trimer as analyte in solution, series from 200nM.
Assay [11] deals with 16055 NFL TD8 trimer (HIV-1 strain 16055 (subtype C)). The assay is described as follows: BLI; IgG immobilized on a bio-sensor, trimer as analyte in solution, series from 400nM. (In BLI a coated tip is dipped into the sample, and binding shifts an interference pattern.)
For assay [12], the target named is JRFL SOSIP TD. The description is as above.
For assay [13], the target named is 16055 NFL TD8 trimer (HIV-1 strain 16055 (subtype C)). The assay is described as follows: ELISA, OD 450 nm; His-tagged trimer captured by anti-His mAb on the plate, antibody titrated.
For assay [14], the target named is JRFL NFL TD15 trimer (HIV-1 strain JRFL (subtype B)). Described as above.
The target in assay [15] is 16055 NFL TD8 trimer (HIV-1 strain 16055 (subtype C)). In words: BLI (Octet), series from 200nM, 1:1 global fit; paragraph 228: IgG on anti-human IgG Fc sensors, trimer as analyte.
Assay [16] concerns the target JRFL NFL TD15 trimer (HIV-1 strain JRFL (subtype B)). The description is as above.
In assay [17] the target is 16055 NFL TD8 trimer (HIV-1 strain 16055 (subtype C)). The assay is described as follows: BLI (Octet), IgG on anti-human Fc sensors, trimer as analyte, global fit 1:1.
For assay [18], the target named is 16055 NFL TD8 CC trimer (HIV-1 strain 16055 (subtype C)). In words: ELISA, OD 450nm; antibody titrated on the captured trimer.
The target of assay [19] is 16055 NFL TD8 trimer (HIV-1 strain 16055 (subtype C)). The description is as above.
Assay [20] addresses JRFL NFL TD15 trimer (HIV-1 strain JRFL (subtype B)). The assay is described as above.
Assay [21] addresses 16055 NFL TD8 CC trimer (HIV-1 strain 16055 (subtype C)). The assay is described as follows: ELISA, OD 450nm, mAb 5 to 0.00032 ug/mL on the trimer, without sCD4.
Assay [22] concerns the target 16055 NFL TD8 trimer (HIV-1 strain 16055 (subtype C)). Described as above.
For assay [23], the target named is JRFL NFL TD15 trimer (HIV-1 strain JRFL (subtype B)). In words: BLI (Octet), IgG on anti-human Fc sensors, trimer as analyte, global fit 1:1.
Assay [24] deals with JRFL NFL TD15 CC trimer (HIV-1 strain JRFL (subtype B)). In words: ELISA, OD 450nm; antibody titrated on the captured trimer.
Assay [25] deals with BG505 NFL CC trimer (HIV-1 strain BG505 (subtype A)). The description is as above.
The target of assay [26] is JRFL SOSIP TD. In words: BLI; VRC03 Fab as analyte in solution (series from 400nM), trimer immobilized on the sensor.
Assay [27] has as its target 16055 NFL TD8 CC trimer (HIV-1 strain 16055 (subtype C)). The assay is described as follows: BLI; VRC03 Fab as analyte in solution (series from 6400nM), trimer immobilized on the sensor.
Assay [28] addresses 16055 NFL TD8 trimer (HIV-1 strain 16055 (subtype C)). The assay is described as above.

pKd: −log10 of the molar value.

For 2G12 (antibody), the EC50 (read off the curve) (usually the midpoint of the concentration-response curve) in assay [1] came to 0.1 µg/mL; with Δ276 Δ301 Δ360 Δ463 [2] it was 0.1 µg/mL; with Δ276 Δ360 Δ463 [3] it was 0.1 µg/mL; in assay [4], 0.04 µg/mL; in the assay with Δ276 Δ301 Δ360 Δ463 [5], 0.04 µg/mL; with Δ276 Δ360 Δ463 [6], 0.04 µg/mL.
For 8ANC131 (antibody), the EC50 (read off the curve) in assay [7] came to 0.1 µg/mL; with Δ276 Δ301 Δ360 Δ463 [8] it was 0.03 µg/mL; with Δ276 Δ360 Δ463 [9], 0.03 µg/mL.
For the substance 8ANC134 (antibody), the values for the EC50 (read off the curve) (in assay [7]; in the assay with Δ276 Δ301 Δ360 Δ463 [8]; with Δ276 Δ360 Δ463 [9]) were 0.1 µg/mL, 0.03 µg/mL and 0.03 µg/mL, respectively.
On to CD4-Ig2 (Fc fusion), for which the EC50 (read off the curve) (in assay [7]; with Δ276 Δ301 Δ360 Δ463 [8]; with Δ276 Δ360 Δ463 [9]) was 0.04 µg/mL throughout.
HJ16 (antibody) returned an EC50 (read off the curve) in assay [7] of 0.02 µg/mL.
With PG16 (antibody), the EC50 (read off the curve) amounted to 0.07 µg/mL with 16055 NFL TD GL L568G, 0.09 µg/mL in assay [13] and 0.03 µg/mL in [14]. In addition, the pKd (as a rule, the negative decadic logarithm of the Kd, by convention in mol/L) in [10] is 7.57; in assay [11], 7.53; in the assay with JRFL SOSIP TD [12], 7.37; in assay [15] it was 7.54; in [16], 7.39. Moreover, the koff (as a rule, a measure of how fast the partners let go of each other) came out at 0.0017 s⁻¹ in assay [15] and 0.0032 s⁻¹ in assay [16]. Also, the figures for the on-rate constant (kon) in assay [15] and in [16] were 58000 M⁻¹ s⁻¹ and 77000 M⁻¹ s⁻¹, respectively.
In the case of PGDM1400 (antibody), the pKd in assay [17] is 7.68; in assay [10] it was 7.66; in assay [11], 7.67; with JRFL SOSIP TD [12], 5.55; in assay [16], 7.44. The EC50 (read off the curve) turned out to be 0.1 µg/mL in assay [18] and 0.06 µg/mL in [13]. In addition, the koff in [15] amounted to 0.0015 s⁻¹; in assay [16], 0.0011 s⁻¹. In addition, the kon (in general, a measure of how fast the partners come together) was determined as 73000 M⁻¹ s⁻¹ in assay [15] and 31000 M⁻¹ s⁻¹ in assay [16].
Turning to PGT121 (antibody), the results for the EC50 (read off the curve) in assay [19] and in assay [20] were 0.07 µg/mL and 0.2 µg/mL, respectively.
For the substance PGT128 (antibody), the EC50 (read off the curve) in assay [19] and in assay [20] was 0.05 µg/mL in each case.
As to PGT145 (antibody), the EC50 (read off the curve) in assay [7] is 0.02 µg/mL; with Δ276 Δ301 Δ360 Δ463 [8], 0.01 µg/mL; in the assay with Δ276 Δ360 Δ463 [9] it was 0.01 µg/mL; in assay [21], 0.07 µg/mL; in [22], 0.07 µg/mL; in assay [18] it was 0.04 µg/mL. The EC50 (read off the curve) stood at 0.04 µg/mL in [24], 0.1 µg/mL in assay [13] and 0.2 µg/mL in [14]. For the same substance, the pKd in [23] was 8.30; in assay [10] it was 7.48; in assay [11], 7.39; with JRFL SOSIP TD [12] it was 8.36; in [15] it was 7.40. In addition, the koff in [15] was determined as 0.0044 s⁻¹; in assay [16], 0.00067 s⁻¹. Also, the kon in [15] was determined as 110000 M⁻¹ s⁻¹; in assay [16] it was 120000 M⁻¹ s⁻¹.
For VRC01 (antibody), the EC50 (read off the curve) is 0.1 µg/mL in assay [7], 0.03 µg/mL in the assay with Δ276 Δ301 Δ360 Δ463 [8], 0.03 µg/mL with Δ276 Δ360 Δ463 [9] and 0.2 µg/mL in [25].
In the case of VRC03 (antibody), the EC50 (read off the curve) with Δ276 Δ301 Δ360 Δ463 [8] came out at 0.04 µg/mL; with Δ276 Δ360 Δ463 [9], 0.04 µg/mL; in assay [24], 0.2 µg/mL; in assay [14] it was 0.2 µg/mL.
VRC03 Fab: the pKd in the assay with JRFL SOSIP TD [26] was 7.88; in assay [27] it was 6.22; in assay [28], 6.77.
For the substance VRC05 (antibody), the EC50 (read off the curve) in assay [7] is 0.1 µg/mL.
Turning to VRC06b (antibody), the EC50 (read off the curve) in assay [7] was 0.1 µg/mL; in the assay with Δ276 Δ301 Δ360 Δ463 [8], 0.03 µg/mL; with Δ276 Δ360 Δ463 [9] it was 0.03 µg/mL; in assay [24], 0.2 µg/mL; in assay [14] it was 0.08 µg/mL.
For the substance VRC13 (antibody), the EC50 (read off the curve) in assay [7] was 0.1 µg/mL.
In the case of VRC16 (antibody), the figures for the EC50 (read off the curve) (in assay [7]; in the assay with Δ276 Δ301 Δ360 Δ463 [8]; with Δ276 Δ360 Δ463 [9]) were 0.05 µg/mL, 0.03 µg/mL and 0.03 µg/mL, respectively.
As for VRC18b (antibody), the EC50 (read off the curve) with Δ276 Δ301 Δ360 Δ463 [8] and in the assay with Δ276 Δ360 Δ463 [9] was 0.04 µg/mL throughout.

Source of the values: patent US20160272948A1.
